B1: TPR t1 (parent)
chain: GACCAAUCUGCCCUCAGAGCUCGAGAACAUCUUCGGAUGCAGAGGAGGCAGGCUUCGGUGGCGCGAUAGCGCCAACGUCCUCAACCUCCAAUGCAUCCCACCACAUGAUGAUGCCUGAAGAGCCUUGGUUUUUUG

Variants of: B1
Test: polymerase ribozyme fitness, log enrichment relative to wild type (log ratio); higher = more active; in vitro selection for triplet polymerase activity
How it was run: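 PCR was used to build mutant libraries for each subunit of a heterodimeric triplet polymerase ribozyme, which were then transcribed. A single in vitro selection round, in triplicate, used a frozen incubation at −7 °C and recovered extended constructs by gel excision, streptavidin beads and RT-PCR. Fitness is the logarithm of genotype enrichment relative to wild-type enrichment, averaged over replicates with inverse-variance weights. The logarithm is base 2, and after Illumina sequencing only genotypes with ≥10 input reads and ≥1 read per output were kept.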

Going from GACCAAUCUGCCCUCAGAGCUCGAGAACAUCUUCGGAUGCAGGGGAGGCAGGCUUCGGUGGCGCGAUAGCGCCAACGUCCUCAACCUCCAAUGCAUCCCACCACAUAAUGAUGCCUGAAGAGCCUUGGUUUUUUG [A43G G107A] to GACCAAUCUGCCCUCAGAGCUCGAGAACAUCUUCGGAUGCAGGGGAGGCAGGCUUCGGUGACGCUAUAGCGCCAACGUCCUCAACCUCCAAUGCAUCCCACCACAUGAUGAUGCCUGAAGAGCCUUGGUUUUUUG [A43G G61A G65U], the “polymerase ribozyme fitness (log ratio)” value rises from -6.28 to -5.48.

Going from GACCAAUCUGCCCUCAGAGCUCGAGAACAUCUUCGGAUGCAGGGGAGGCAGGCUUCGGUGUCGCGAUAGCGCCAACGUCCUCAACCUCCAAUGGAUCCCACCUCAUGAUGAUGGCUGAAGAGCCUUGGUUUUUUG [A43G G61U C94G A103U C114G] to GACCAAUCUGCCCUCAGAGCUCGAGAACAUCUUCGGAUGCAGCGGAGGCAGGCUUCGGUGGCGCGAUAGCGCCAACGUCCUCAACCUCCAAUGCAUCCCACCACAUGAUGAACCCUGAAGAGCCUUGGUUUUUUG [A43C U112A G113C], the “polymerase ribozyme fitness (log ratio)” value rises from -5.99 to -1.28.

Compared with GACCAAUCUGCCCUCAGAGCUCGAGAACAUCUUCGGAUGCAGGGGAGGCAGGCUUUGGUGGCGCGAUAGCGCCAACGUGCUCAACCUCCAAUGCAUCCCACCACAUGAUGGUGCCUGAAGAGCCUUGGUUUUUUG [A43G C56U C79G A111G], GACCAAUCUGCCCUCAGAGCUCGAGAACAUCUUCGGAUGCAGGGGAGGCAGGCUUCGGUGGCGCGAUAGCGCCAACGUCCUCAACCUCCAAUGCAUCCCACCCCAUGAUGAUGCCUGAGGGUCCUUGGUUUUUUU [A43G A103C A119G A121G G122U G135U] is higher in “polymerase ribozyme fitness (log ratio)” value: -5.35 for the first, -4.67 for the second.

First: GACCAAUCUGCCCUCAGAGCUCGAGAACAUCUUCGGAUGCAGGGGAGGCAGGCGUCGGUGGCGCGAUAGCGCCAACGUCCUCAACCUCGAAUGGAUCCCACCACAUGAUGAUGCCUGAAGAGCCUUGGUUUUUUG [A43G U54G C89G C94G]
Second: GACCAAUCUGCCCUCAGAGCUCGAGAACAUCUUCGGAUGCAGGGGAGGCAGGCUUCGGUGGCGCGAUAGCGCCAACGACCUCAACCUUCAAUGCAUCCCACCACAUGAGGAUGCCUGAAGAGCCUUGGUUUUUUG [A43G U78A C88U U109G]
The “polymerase ribozyme fitness (log ratio)” value of the first is higher: -3.3 for the first, -7.02 for the second.

First: GACCAAUCUGCCCUCAGAGCUCGAGAACAUCUUCGGAUGCAGGGGUGGCAGGCUUCGGUGGCUCGAUAGCGCCAACGUCCUCAACCACCAAGGCAUCCCACCACAUGAUGAUGCCUGAACAGCCUUGGUCUUUUG [A43G A46U G63U U87A U92G G120C U130C]
Second: GACCAAUCUGCCCUCAGAGCUCGAGAACAUCUUCGGAUGCAGGGGAGGCAGGCUUCGGUGGCGCGAUAGCGCGAACGACCUCAACCUCCAAUGCAUCCCACCACAUGAUGGUGCCUGAAGAGCCUUGGUUUUUUG [A43G C73G U78A A111G]
The “polymerase ribozyme fitness (log ratio)” value of the first is lower: -6 for the first, -3.33 for the second.

First: GACCAAUCUGCCCUCAGAGCUCGAGAACAUCUUCGGAUGCAGGGGAGGCAGGCUUCGCUAGCGCGAUAGCGCCAACGUCCUCAACCUCCAAUGCAUCCCACCACAUGAUGAUGCCUGAAGAGCCUUGGUUUUUUG [A43G G58C G60A]
Second: GACCAAUCUGCCCUCAGAGCUCGAGAACAUCUUCGGAUGCAGCGGAGGCAGGCUUCGGUGGCGCGAUAGCGCCAACGACCUAAACCUCCAAUGCAUCCCACCACAUGAUGAUGCCUGAAGAGCCUUGGUUUUUUG [A43C U78A C82A]
The “polymerase ribozyme fitness (log ratio)” value of the first is higher: -2.53 for the first, -3.68 for the second.

First: GACCAAUCUGCCCUCAGAGCUCGAGAACAUCUUCGGAUGCAGGGGAGGCAGGCUUCGGUGGCGCGAUAGCCCCAACGUCCUCAACCGCCAAUGCAUCCCACCACAUGAUGAUGCCUGAAGAGCCUUGGUUUUUUG [A43G G71C U87G]
Second: GACCAAUCUGCCCUCAGAGCUCGAGAACAUCUUCGGAUGCAGGGGACGCAGGCUUCGGUGGCGUGAUAGCGCCAACGUCCUCAACGUCCAAUGCAUCCCACCACAUGAUGAUGCCUGAAGAGCCGUCGUUUUUUG [A43G G47C C64U C86G U125G G127C]
The “polymerase ribozyme fitness (log ratio)” value of the first is lower: -4.59 for the first, -3.04 for the second.

Going from GACCAAUCUGCCCUCAGAGCUCGAGAACAUCUUCGGAUGCAGGGGAGGCAGGCUUCGGUGGCGCGAUAGCGCCAACGUCCUCAACCUCCAAUGCAUCCCACCACAUGAUGAUGCCUGAAGAGCAUUGGUUUUUUG [A43G C124A] to GACCAAUCUGCCCUCAGAGCUCGAGAACAUCUUCGGAUGCAGGGGAGGCAGGCUUCGGUGGCGCGAUAGCGCCAACGUCCUCAACCUCCAAUGCAUCCCACCACAUGAUAAUGCCUGAAGAGCCUUGGUUUUUUG [A43G G110A], the “polymerase ribozyme fitness (log ratio)” value falls from 0.39 to -3.34.

First: GACCAAUCUGCCCUCAGAGCUCGAGAACAUCUUCGGAUGCAGGGGAGGCUGGCUUCGGUGGCGCGAUAGCGCCAACGUCCUCAACCUCCAAUGCAUCCCACCACAUGAUGAUGCCUGAAGAGCCUUGGUUUUUUG [A43G A50U]
Second: GACCAAUCUGCCCUCAGAGCUCGAGAACAUCUUCGGAUGCAGCGGAGGCAGGCUUCGGUGGCGCGAUAGCGCCAACGUCCUCAACCUCCAAUGCAUCCCACCACAUGAUGAAGCCUGAAGAGCCUUCGUUUUUUG [A43C U112A G127C]
The “polymerase ribozyme fitness (log ratio)” value of the first is lower: -3.81 for the first, -2.51 for the second.

First: GACCAAUCUGCCCUCAGAGCUCGAGAACAUCUUCGGAUGCAGCGGAGGCAGGCUUCGGUGGCGCGAUAGCGCCAACGUCCUCAACCCCCAAUGCAUCCCACCACAUGAUGAUGCCUGAAGAGCCUUGGUUUUUUG [A43C U87C]
Second: GACCAAUCUGCCCUCAGAGCUCGAGAACAUCUUCGGAUGCAGGGGAGGCAGGCUUCGGUGGCGCGAUAGAGCCAACGUCCUCAACCUCCAAUGCAUCCCACCACAUGAUGAUGCCUGAAGAGCCUUGGUUUUUUG [A43G C70A]
The “polymerase ribozyme fitness (log ratio)” value of the first is higher: -1.86 for the first, -4.41 for the second.

In the case of GACCAAUCUGCCCUCAGAGCUCGAGAACAUCUUCGGAUGCAGGGGAGGUAGGCUUCGGGGGCGCGAUAGCGCCAACGUCCUCAACCUCCAAUGCAUCCCACCACAUGAUGAUGUCUGAAGAGCCUUGGUUUUUUG [A43G C49U U59G C114U], the “polymerase ribozyme fitness (log ratio)” value is reported as -2.13.
